Patent US20200392227A1 (LYVGEN BIOPHARMA, published 2020)
Read-outs that look alike come from different tables or passages of the source. Values belong to the binder of their own block, whether it stands above or below them.

Experiments:
Assay in all cases: BLI
[1] = biological target: T1, human FcRIIIA-F158 protein (MednaBio, E1036) (human, UniProt P08637 17-208)
T1 construct: Bought; also called FcγRIIIA(F)
In short: (§1)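 Binding was measured by biolayer interferometry on an Octet Red96 System, with commercial human Fc receptor proteins loaded at 20 μg/mL onto anti-penta-HIS biosensors. Sensors were dipped into an 8-point 1:3 dilution series of test IgG starting at 300 nM in PBS with 0.1% BSA and 0.02% Tween-20. Fcγ receptor assays ran at pH 7.2 and FcRn assays at pH 6. Kd, kon and koff came from global fitting to a 1:1 binding model.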

[2] = biological target: T2, human FcRIIIB protein (MednaBio, E1037) (human, UniProt O75015 17-200)
T2 construct: Bought; also called FcγRIIIB; FcgRIIIB
T2 sequence (O75015 17-200 limits assumed): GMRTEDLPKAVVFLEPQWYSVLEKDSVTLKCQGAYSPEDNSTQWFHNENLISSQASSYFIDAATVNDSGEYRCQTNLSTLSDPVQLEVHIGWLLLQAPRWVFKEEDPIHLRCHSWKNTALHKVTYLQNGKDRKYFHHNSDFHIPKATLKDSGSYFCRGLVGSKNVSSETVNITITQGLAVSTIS
In short: as §1

[3] = biological target: T1, human FcRIIIA-F158 protein (MednaBio, …); remark: listed apart in the source
In short: as §1

[4] = biological target: T2, human FcRIIIB protein (MednaBio, E1037); remark: listed apart in the source
In short: as §1

[5] = biological target: T3, human FcRIIIA-V158 protein (MednaBio, E1035) (human, UniProt P08637 17-208)
T3 construct: Bought; also called FcγRIIIA(V); FcgRIIIA(V)
T3 sequence (P08637 17-208 F176V): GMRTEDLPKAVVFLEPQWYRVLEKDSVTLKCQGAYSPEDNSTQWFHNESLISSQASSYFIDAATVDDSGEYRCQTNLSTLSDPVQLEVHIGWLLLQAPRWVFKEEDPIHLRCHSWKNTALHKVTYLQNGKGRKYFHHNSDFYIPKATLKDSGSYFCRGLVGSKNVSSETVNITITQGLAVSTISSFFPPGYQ
In short: as §1

[6] = biological target: T4, human FcRIIB/C protein (MednaBio, E1034) (human, UniProt P31994 43-217, limits assumed)
T4 construct: Bought as FcRIIB/C; also called FcγRIIB; CD32B
T4 sequence (looked up): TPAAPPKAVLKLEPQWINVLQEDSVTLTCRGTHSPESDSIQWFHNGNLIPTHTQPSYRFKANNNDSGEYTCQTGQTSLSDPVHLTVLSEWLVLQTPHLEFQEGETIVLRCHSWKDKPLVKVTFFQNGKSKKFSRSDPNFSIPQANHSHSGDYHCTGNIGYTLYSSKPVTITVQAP
In short: as §1

[7] = biological target: T5, human FcRI protein (MednaBio, E1031) (human, UniProt P12314 16-288, limits assumed)
T5 construct: Bought; loaded on anti-penta-HIS biosensors; also called FcγRI
T5 sequence (P12314 16-288 limits assumed): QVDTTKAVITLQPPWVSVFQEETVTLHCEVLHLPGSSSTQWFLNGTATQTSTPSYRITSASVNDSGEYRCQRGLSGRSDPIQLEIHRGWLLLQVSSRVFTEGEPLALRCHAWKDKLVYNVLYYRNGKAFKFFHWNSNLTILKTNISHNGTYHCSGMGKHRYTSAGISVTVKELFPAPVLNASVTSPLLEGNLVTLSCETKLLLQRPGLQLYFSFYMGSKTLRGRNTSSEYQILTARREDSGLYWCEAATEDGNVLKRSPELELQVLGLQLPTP
In short: as §1

[8] = biological target: T6, human FcRn protein (MednaBio, E1032) (human, UniProt P55899 24-297; P61769 21-119)
T6 construct: Bought; assays at pH 6
In short: as §1

[9] = biological target: T7, human FcRIIA protein (MednaBio, E1033) (human, UniProt P12318 34-218, limits assumed)
T7 construct: Bought; also called FcγRIIA
T7 sequence (looked up): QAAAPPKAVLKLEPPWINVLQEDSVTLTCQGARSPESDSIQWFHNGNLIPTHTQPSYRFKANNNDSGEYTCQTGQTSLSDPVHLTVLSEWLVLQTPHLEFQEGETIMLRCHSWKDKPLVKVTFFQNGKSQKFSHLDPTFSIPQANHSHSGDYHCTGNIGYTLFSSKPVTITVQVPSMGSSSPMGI
In short: as §1

[10] = biological target: T1, human FcRIIIA-F158 protein (MednaBio, …); remark: listed apart in the source
[11] = biological target: T2, human FcRIIIB protein (MednaBio, E1037); remark: listed apart in the source
[12] = biological target: T1, human FcRIIIA-F158 protein (MednaBio, …); remark: listed apart in the source
In short: as §1

[13] = biological target: T2, human FcRIIIB protein (MednaBio, E1037); remark: listed apart in the source
In short: as §1

[14] = biological target: T5, human FcRI protein (MednaBio, E1031); remark: listed apart in the source
In short: as §1

[15] = biological target: T6, human FcRn protein (MednaBio, E1032); remark: listed apart in the source
In short: as §1

T1 sequence (P08637 17-208 limits assumed): as the sequence (P08637 17-208 F176V) above, with V160F counted along it

Kd [1]: 120 nM
koff [1]: 0.02 s⁻¹
kon [1]: 170000 M⁻¹ s⁻¹
Kd [2]: 130 nM
koff [2]: 0.027 s⁻¹
kon [2]: 210000 M⁻¹ s⁻¹
Kd [3]: 120 nM
koff [3]: 0.02 s⁻¹
kon [3]: 170000 M⁻¹ s⁻¹
Kd [4]: 130 nM
koff [4]: 0.027 s⁻¹
kon [4]: 210000 M⁻¹ s⁻¹
Kd [5]: 60 nM
koff [5]: 0.027 s⁻¹
kon [5]: 450000 M⁻¹ s⁻¹
Kd [6]: 130 nM
koff [6]: 0.016 s⁻¹
kon [6]: 120000 M⁻¹ s⁻¹
Kd [7]: 5.6 nM
koff [7]: 0.0012 s⁻¹
kon [7]: 220000 M⁻¹ s⁻¹
Kd [8]: 16 nM
koff [8]: 0.008 s⁻¹
kon [8]: 480000 M⁻¹ s⁻¹
Kd [9]: 56 nM
koff [9]: 0.032 s⁻¹
kon [9]: 570000 M⁻¹ s⁻¹
Kd [10]: 120 nM
koff [10]: 0.02 s⁻¹
kon [10]: 170000 M⁻¹ s⁻¹
Kd [11]: 130 nM
koff [11]: 0.027 s⁻¹
kon [11]: 210000 M⁻¹ s⁻¹
Kd [12]: 120 nM
koff [12]: 0.02 s⁻¹
kon [12]: 170000 M⁻¹ s⁻¹
Kd [13]: 130 nM
koff [13]: 0.027 s⁻¹
kon [13]: 210000 M⁻¹ s⁻¹
B1: wild-type human IgG1 control (antibody)
heavy: not shown
light: SYELTQPPSVSVSPGQTASITCSGDNIGDQYAHWYQQKPGQSPVLVIYQDKNRPSGIPERFSGSNSGNTATLTISGTQAMDEADYYCATYTGFGSLAVFGGGTKLTVLGQPKAAPSVTLFPPSSEELQANKATLVCLISDFYPGAVTVAWKADSSPVKAGVETTTPSKQSNNKYAASSYLSLTPEQWKSHRSYSCQVTHEGSTVEKTVAPTECS
notes: Control IgG

Kd [14]: 4.8 nM
koff [14]: 0.0017 s⁻¹
kon [14]: 360000 M⁻¹ s⁻¹
Kd [15]: 18 nM
koff [15]: 0.012 s⁻¹
kon [15]: 640000 M⁻¹ s⁻¹
B2: wild-type human IgG4 control (antibody)
heavy: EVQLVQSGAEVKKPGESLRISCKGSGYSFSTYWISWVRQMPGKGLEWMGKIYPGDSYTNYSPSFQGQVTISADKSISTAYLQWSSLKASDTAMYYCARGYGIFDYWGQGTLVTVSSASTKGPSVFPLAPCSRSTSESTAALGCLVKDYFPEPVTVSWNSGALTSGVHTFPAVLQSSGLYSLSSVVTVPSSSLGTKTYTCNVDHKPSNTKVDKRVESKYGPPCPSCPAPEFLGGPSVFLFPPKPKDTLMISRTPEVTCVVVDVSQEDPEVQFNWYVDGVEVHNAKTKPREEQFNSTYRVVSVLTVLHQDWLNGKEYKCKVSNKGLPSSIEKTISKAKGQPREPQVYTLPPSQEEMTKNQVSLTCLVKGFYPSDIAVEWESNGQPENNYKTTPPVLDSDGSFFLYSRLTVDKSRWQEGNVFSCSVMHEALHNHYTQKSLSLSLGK
light: SYELTQPPSVSVSPGQTASITCSGDNIGDQYAHWYQQKPGQSPVLVIYQDKNRPSGIPERFSGSNSGNTATLTISGTQAMDEADYYCATYTGFGSLAVFGGGTKLTVLGQPKAAPSVTLFPPSSEELQANKATLVCLISDFYPGAVTVAWKADSSPVKAGVETTTPSKQSNNKYAASSYLSLTPEQWKSHRSYSCQVTHEGSTVEKTVAPTECS
notes: Control IgG
